We go through one substance from article PMC6586363.

This test addresses recombinant human PKM2, wild type (human) (UniProt P14618). Briefly: native gel or EMSA; blue native gel electrophoresis of recombinant PKM2 (WT or mutant) or PKM1, alone or with FBP and/or scFv 5; resolves dimer and tetramer forms. (In EMSA bound probe runs differently from free probe, usually more slowly.)

The stoichiometry N is the number of molecules, sites or subunits per partner or assembly.

recombinant human PKM2, wild type, P14618 1-531 (enzyme; other documents disagree on this pair), sequence (P14618 whole entry): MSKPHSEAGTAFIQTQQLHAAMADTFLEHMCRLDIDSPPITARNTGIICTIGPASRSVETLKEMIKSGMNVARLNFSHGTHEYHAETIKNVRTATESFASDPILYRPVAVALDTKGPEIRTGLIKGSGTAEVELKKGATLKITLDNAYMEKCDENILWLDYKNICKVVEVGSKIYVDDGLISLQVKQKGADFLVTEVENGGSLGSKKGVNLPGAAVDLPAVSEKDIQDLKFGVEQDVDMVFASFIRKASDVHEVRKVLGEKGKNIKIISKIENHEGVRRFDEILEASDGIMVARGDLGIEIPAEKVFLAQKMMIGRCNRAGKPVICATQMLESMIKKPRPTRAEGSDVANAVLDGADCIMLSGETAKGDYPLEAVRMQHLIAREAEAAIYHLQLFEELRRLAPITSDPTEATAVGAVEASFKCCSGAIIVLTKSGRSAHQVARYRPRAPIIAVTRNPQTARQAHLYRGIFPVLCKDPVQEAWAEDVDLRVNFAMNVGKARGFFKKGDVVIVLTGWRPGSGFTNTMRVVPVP

Consider “recombinant human PKM2, wild type, P14618 1-531 (enzyme; other documents disagree on this pair)”, for which the stoichiometry N amounted to 2.
